Reference: the supplement of paper PMC9170038

Tested on: MS2 coat protein
Experiment: apparent KD of MS2 coat protein; designed switch direction (-1 OFF switch, 1 ON switch): -1; higher = weaker reporter binding
Outline: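 On Illumina chips, designed RNA switches with common flanks were made by stalled E. coli RNA polymerase. Titrations with SNAP-549-labelled MS2 coat protein, doubling from 0.7 or 1.5 nM to 3 µM, were done with no input, with 200 uM small-molecule ligand, or with an oligonucleotide input. Apparent KD is the median per design over clusters, from curve fits of normalised cluster fluorescence.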

[1] = input ligand: microRNA oligo, concentration not stated
[2] = Eterna round: R95, input ligand: FMN 200 uM
[3] = Eterna round: R95, input ligand: microRNA oligo, concentration not stated
[4] = Eterna round: R95, input ligand: none

Sequence | apparent KD of MS2 coat protein (input ligand: FMN 200 uM) | apparent KD of MS2 coat protein [1] | apparent KD of MS2 coat protein (input ligand: none) | apparent KD of MS2 coat protein [2] | apparent KD of MS2 coat protein [3] | apparent KD of MS2 coat protein [4]
CGGGCGCGUGUAGGAUAUCGGGCCCGGUGGGCCCGAGAAGGACAUGAGGAUCACCCAUGUGCCCGGGUUGCCCGGGCGCGCCCG [-50, -49 kcal and 14% A] (Eterna round: R96, puzzle: Exclusion NG 1) | 14.6 nM | 7.82 nM | 14.5 nM | – | – | –
AAGGGUACUUUCAGAACGACAUGAGGAUCACCCAUGUAGACUGAGGAUAUCUACUACUAAGGACGGGAGAAGGCAGUGUAAUGU [Ex NG3 #73] (Eterna round: R96, puzzle: Exclusion NG 3) | 13.8 nM | 10 nM | 15.2 nM | – | – | –
UUAUUAUAUGUAGGAUAUGCAUAUUGUUGUUAUGCAGAAGGACAUGAGGAUCACCCAUGUAUAUUAUUGUUGUGUAUUAUAUAU [Title] (Eterna round: R96, puzzle: Exclusion NG 1) | 57.1 nM | 29.1 nM | 33 nM | – | – | –
CUUUACAAGCUAAGAUCCUACAUGAGGAUCACCCAUGUGGUCCGGUGACGUGAGUCACCGGACUUAGCUCGUCUUGG [salish99_S_TOV1_R5_095] (Eterna round: R97, puzzle: Sensor, turn-off variant 1) | 30.1 nM | – | 32.2 nM | – | – | –
GAUCGACAUGAGGAUCACCCAUGUCAGGAUAUGCAACGGACAAAACGAUACGUCAUAGGUAGAAGGGACUGUCU [Eternabot (Original) Solution 2] (Eterna round: R97, puzzle: Exclusion 1) | 18.4 nM | – | 17.7 nM | – | – | –
AAAUAGAAUGAGGAUAUCGAAUUAUAUAUAGUACGAGAAGGCAUUACAUGAGGAUCACCCAUGUUUUGUUGGGA [JR_Ex6_Sub001] (Eterna round: R97, puzzle: Exclusion 6) | 73 nM | – | 27.6 nM | – | – | –
UUUAACGAUGAGGAUAUAUGAUAUCAAAGCAUCAUAGAAGGCAUCACAUGAGGAUCACCCAUGUGAUCUUCUUU [Mat - Exclusion 6 - JL Mod - D29] (Eterna round: R97, puzzle: Exclusion 6) | 69.6 nM | – | 16.6 nM | – | – | –
UAUGGUAAAGUCAGGAUAUACGUGCAGAAUUCUAGGUAGAAGGGACAUGAGGAUCACCCAUGUAUGGUAGUGUU [Ex4 #44] (Eterna round: R97, puzzle: Brourd's mod of Exclusion 4) | 146 nM | – | 104 nM | – | – | –
UUGGAACGAGGAUAUCGAUGGUGGAACAUGAGGAUCACCCAUGUAUGAGAUAGUGUAGUUCGAGAAGGCGUUAAGU [JR_E5_Sub054] (puzzle: Exclusion 5) | – | – | – | 24.1 nM | 40.3 nM | 48.9 nM
GGUAGUAUGAGUAGUCCUCAUUGAAGAGAUUAGUAAGAAACAUGAGGAUCACCCAUGUUAGAACAAGCUUUUGCUCA [JR_Sv3TOV2_Sub004] (puzzle: Sensor v3, turn-off variant 2) | – | – | – | 113 nM | 45.7 nM | 142 nM
UGAGGACAUGAGGAUCACCCAUGUAAGGAUAUGCGGAGAGAUUGGAGAGGUCGAGGAGGCAGAAGGUACAGGAC [JR_Exclu1_Sub049] (puzzle: Exclusion 1) | – | – | – | – | 68 nM | –
CUUUUGUGAGGAUAUCAGUAGUAAAAAAAUAAAAUUUCUACUGAGAAGGCACAUGAGGAUCACCCAUGUUCCUC [salish99_ex4_r3_026] (puzzle: Exclusion 4) | – | – | – | – | 34.5 nM | –
AAUAACAAGCCGAUCCUCCACAUGAGGAUCACCCAUGUGUUCGUCUUGUAAAGUACUAUCACGAAAGUGAUAGUACA (Eterna round: R97, puzzle: Sensor, turn-off variant 1) | 23 nM | – | 30.5 nM | – | – | –
AUUGAUGUUGAGGAUAUGCUUUUAUUUAUUAUAGCAGAAGGCGAUACAUGAGGAUCACCCAUGUUCAUGGCUUU [JR_E6_Sub097] (puzzle: Exclusion 6) | – | – | – | – | 11 nM | –
CAGAAUUGAGGAUAUGAUCAAUUUAACAUGAGGAUCACCCAUGUAUGGGAAUGAUUCUGAUCAGAAGGCGAUUCUU [Exclusion 5: 1:a] (puzzle: Exclusion 5) | – | – | – | 257 nM | 285 nM | 461 nM
ACGAUGACUGAAAGAAGUCAAAAGACAUGAGGAUCACCCAUGUAGGAUAUGGCUACGAAAAGUAGUCAGAAGGACAAGUCAUCA [Omei Exc(NG) 3 Av4] (Eterna round: R96, puzzle: Exclusion NG 3) | 10.1 nM | 9.69 nM | 14.1 nM | – | – | –
GUGUUACAAGUGAGGAUAUCUGCUUUGGUAGAAGCGGAGAAGGCACAUGAGGAUCACCCAUGUCAGGAGUCCAU [Eternabot (L2) Solution 20] (Eterna round: R97, puzzle: Brourd's mod of Exclusion 4) | 393 nM | – | 59.3 nM | – | – | –
GUCAUCACACAUGGGAUCAACAUGAGGAUCACCCAUGUUGCCAAGUUGUUUGCACGUCUUAUCAUACGUUUUUCGAG [Mod-Jxh] (Eterna round: R97, puzzle: Sensor, turn-off variant 1) | 22.9 nM | – | 23.2 nM | – | – | –
CCUUAGUCACAGGAUAUGCUCAUCUAAUGAUGAGCAGAAGGGUGGACAUGAGGAUCACCCAUGUUUAUCAAGGG [Omei Ex6 E2] (Eterna round: R97, puzzle: Exclusion 6) | 249 nM | – | 348 nM | – | – | –
ACGCAACAUGAGGAUCACCCAUGUGAGGAUAUGUAAAUAGUAAACAAAUAGGAAAUGAACAGAAGGCACACCGG [JR_Exclusion1_Sub005] (puzzle: Exclusion 1) | – | – | – | – | 32.5 nM | –
AAAUUAGCAAGUAGGUCCGACAUGAGGAUCACCCAUGUUAGCUAAUCUAACGCUGCAUGAGAGUGCGCUCGUCUUAA [Sensor-V1 #20] (Eterna round: R97, puzzle: Sensor, turn-off variant 1) | 140 nM | – | 149 nM | – | – | –
GUCCAACAUGAGGAUCACCCAUGUCAGGAUAUGCGAAUUUCAUCAAAAGAUGAAAUUUGCAGAAGGGACUGGAC [Omei Ex1 A29] (Eterna round: R97, puzzle: Exclusion 1) | 44 nM | – | 23.3 nM | – | – | –
GGUGAGCGAGGAUAUACAUGAGGAUCACCCAUGUGAGAGAAUAAAGUGAGGAAGAAAAGUAGAAGGCGCGAACG [Mat - Exclusion 3 - Mod of Salish D47] (puzzle: Exclusion 3) | – | – | – | 91.4 nM | 37.8 nM | 11.9 nM
GUGUCUCGUGUAGGAUAUGCGCGAGGUCUUUGUGCAGAAGGACAUGAGGAUCACCCAUGUAUUCCGCGGCGCGGGCAUGUGUCC [-29/-27 Kcal and A 18%] (Eterna round: R96, puzzle: Exclusion NG 1) | 249 nM | 46.7 nM | 52.5 nM | – | – | –
AACCAUGAAGGAUAUGACUUAACGAACAUGAGGAUCACCCAUGUGACCGAGCAGUGUUGAUCAGAAGGUUAAGGUG [Rier] (puzzle: Exclusion 5) | – | – | – | 101 nM | 83.7 nM | 139 nM
CUUCUGUGAGGAUAUGUUAGUUCCCAGCAAAUCGCUGGGAGACAGAAGGCACAUGAGGAUCACCCAUGUGGGCG [Vexeanra] (Eterna round: R96, puzzle: Exclusion 4) | 612 nM | 49.8 nM | 64.7 nM | – | – | –
